Experimental findings from patent publication US20220348665A1 are described below.

Experiment [1] deals with human IGF1R extracellular domain, recombinant, His tag at C-terminus (human) (UniProt P08069). Nature of the experiment: SPR (Biacore T200), His-tagged human IGF1R ECD captured by anti-his antibody on CM4 chip, bivalent model. A general note: SPR reads the build-up and loss of mass on a sensor chip optically.
Experiment [2] shares this target. Description: ELISA on ECD of IGF1R, bispecific form.
Experiment [3] has as its target human IGF1R, endogenous, on the surface of breast cancer cell lines (MCF-7, JIMT-1, BT474) (human) (UniProt P08069). Nature of the experiment: FACS on MCF-7 cells, antibody 10 ug/mL (2nd Ab only 2.86, not treated 1.88).
The target is the same in experiment [4]. Description: FACS on MCF-7 cells (2nd Ab only 2.92).

Changes are numbered by the printed parent chain.

B1: F06 IgG (anti-IGF1R clone F06, full IgG1 form) (antibody, from a related filing, V domains shown)
VH: EVQLLESGGGLVQPGGSLRLSCAASGFTFSSYDMSWVRQAPGKGLEWVSAISYDNGNTYYADSVKGRFTISRDNSKNTLYLQMNSLRAEDTAVYYCAKGVLTTLMNWFDYWGQGTLVTVSS
VL: QSVLTQPPSASGTPGQRVTISCTGSSSNIGSNDVSWYQQLPGTAPKLLIYANSNRPSGVPDRFSGSKSGTSASLAISGLRSEDEADYYCGTWAGSLNGYVFGGGTKLTVL
In the case of B1, in experiment [1], the Kd was determined as 478 nM.

B2: Hu3A9-C04 (bispecific antibody form of 1564 affinity variant C04) (bispecific antibody, part only; not given: humanized 3A9 IgG carrier, linker, not shown: another chain or arm of the molecule; a dimerising Fc or GST; large carriers; small tags and cut ends)
scFv: QSVLTQPPSASGTPGQRVTISCTGSSSNIGSNDVSWYQQLPGTAPKLLIYANSNRPSGVSDRFSGSKSGTSASLAISGLRSEDEADYYCGAWEQWLNGYVFGCGTKLTVLGGGGSGGGGSGGGGSGGGGSEVQLLESGGGLVQPGGSLRLSCAASGFTFSSYDMSWVRQAPGKCLEWVSAISYDNGNTYYADSVKGRFTISRDNSKNTLYLQMNSLRAEDTAVYYCAKGVLTTLMNWFDYWGQGTLVTVSS
For B2, in experiment [2], the EC50 turned out to be 0.107 nM. The molecule also returned a GeoMean, Internalization at 37° C. in experiment [3] of 7.23.

B3: hu3A9x1564_F06 (bispecific antibody: humanized 3A9 IgG with F06 scFv) (bispecific antibody, part only; not given: humanized 3A9 IgG carrier, linker, not shown: another chain or arm of the molecule; a dimerising Fc or GST; large carriers; small tags and cut ends)
scFv: B2 scFv with A91T, E93A, Q94G, W95S
With B3, the GeoMean, Internalization at 37° C. in experiment [3] amounted to 19.8.

B4: C04 (1564 affinity variant) in bispecific antibody form, backbone not stated (bispecific antibody, not shown: small tags and cut ends)
scFv: B2 scFv
In experiment [4], B4 returned a GEOmean of 3.88.

As usually defined, the EC50 is the concentration that produces a half-maximal response.
